Data published in patent US20190071487A1 (Memorial Sloan Kettering, published 2019).

Target: BTLA (B and T lymphocyte attenuator) on human lymphoma B cells (human, UniProt Q7Z6A9 31-289)
Experiment: cell-based or functional assay

- correlation of percent pSyk inhibition by solHVEM with BTLA surface expression (ratio of MFI), ten primary human FL B cell samples: 0.697 r
B1: Leu39-Val202 soluble HVEM ectodomain polypeptide (receptor)
chain: LPSCKEDEYPVGSECCPKCSPGYRVKEACGELTGTVCEPCPPGTYIAHLNGLSKCLQCQMCDPAMGLRASRNCSRTENAVCGCSPGHFCIVQDGDHCAACRAYATSSPGQRVQKGGTESQDTLCQNCPPGTFSPNGTLEECQHQTKCSWLVTKAGAGTSSSHWV
